Data taken from US9744188B2, “Methods of promoting neuronal outgrowth by gypican 2 that binds to receptor protein tyrosine phosphatase sigma” (PRESIDENT AND FELLOWS OF HARVARD COLLEGE, priority 2011, dated 2017).
Entries after “also recorded” stand apart in the source; their conditions may differ. Like-named read-outs stand apart in the source and are kept apart here.

Tests used:
[1] = target: Mouse RPTPσ sEcto-Fc (mouse) (UniProt B0V2N1); assay: solid phase binding assay, immobilised mouse RPTPσ sEcto-Fc, bound AP activity; Kd from the binding curve, one-to-one binding assumed; Scatchard inset
[2] = target: RPTPσ on mouse dorsal root ganglion (DRG) neurons (mouse) (UniProt B0V2N1); assay: cell-based or functional assay
[3] = test system: RPTPσ−/− P8 mouse DRG neurons; assay: DRG neurite outgrowth assay in RPTPσ−/− neurons; type: cell-based; conditions: neurocan 5 μg/ml or glypican-2 30 μg/ml; 48 hours
Description: (§1) DRGs of P8-12 RPTPσ^+/+ or RPTPσ^−/− mice were cut off from all roots. Neurons were dissociated and subjected to neurite outgrowth assays and analysis as described previously (S2). For experiments in FIG. 1, recombinant mouse Neurocan (5800-NC, R&D Systems) was used at 5 μg/ml and recombinant mouse Glypican-2 (2355-GP, R&D Systems) at 30 μg/ml. In FIG. 5, 30 μg/ml of Glypican-2 was pre-incubated with 1 unit/ml of Heparitinase III (HPNIII, H8891, Sigma) at 37° C. for 4 hrs where indicated, prior to use in outgrowth assays. For experiments in FIG. 19, recombinant mouse glypican-2 was used at 5 μg/ml, and Chondroitin Sulfate Proteoglycan mixture (CSPG, CC117, Millipore) was at 125 μg/ml. For experiments in FIGS. 24 and 25, Chondroitin Sulfate Proteoglycan mixture (CSPG, CC117, Millipore) was at 60 μg/ml, with or without the addition of HS at indicated length and concentration (1 μM for all HS in […]). Proteoglycans and heparin oligosaccharides were added to neuronal cultures 30 min after seeding and were replenished 24 hrs later. At 48 hrs after seeding, cells were fixed and immunostained with anti-GAP43 antibody (NB300-143, Novus). The whole of each well was scanned with a fluorescence microscope and the images were then analyzed for total neurite outgrowth using the Metamorph program.

[4] = test system: wild-type mouse DRG neurons; assay: DRG neurite outgrowth assay (GAP-43 immunostaining, total neurite outgrowth); type: cell-based; conditions: for effect on neurite outgrowth of wild-type neurons: poly-D-lysine/laminin supplemented with neurocan 5 μg/ml or glypican-2 30 μg/ml
Description: as §1

mouse RPTPσ sEcto-Fc = target: T1, mouse RPTPσ sEcto-Fc (Mus musculus, UniProt B0V2N1); assay: Solid phase binding assay: proteoglycan-AP fusion proteins on immobilised RPTPσ sEcto-Fc; conditions: neurocan pre-treated with chondroitinase ABC; glypican-2 pre-treated with heparitinase III
T1 construct: made in house; host or cells: transiently transfected 293T cells
T1 sequence (B0V2N1 30-851 isoform B0V2N1-3 limits assumed): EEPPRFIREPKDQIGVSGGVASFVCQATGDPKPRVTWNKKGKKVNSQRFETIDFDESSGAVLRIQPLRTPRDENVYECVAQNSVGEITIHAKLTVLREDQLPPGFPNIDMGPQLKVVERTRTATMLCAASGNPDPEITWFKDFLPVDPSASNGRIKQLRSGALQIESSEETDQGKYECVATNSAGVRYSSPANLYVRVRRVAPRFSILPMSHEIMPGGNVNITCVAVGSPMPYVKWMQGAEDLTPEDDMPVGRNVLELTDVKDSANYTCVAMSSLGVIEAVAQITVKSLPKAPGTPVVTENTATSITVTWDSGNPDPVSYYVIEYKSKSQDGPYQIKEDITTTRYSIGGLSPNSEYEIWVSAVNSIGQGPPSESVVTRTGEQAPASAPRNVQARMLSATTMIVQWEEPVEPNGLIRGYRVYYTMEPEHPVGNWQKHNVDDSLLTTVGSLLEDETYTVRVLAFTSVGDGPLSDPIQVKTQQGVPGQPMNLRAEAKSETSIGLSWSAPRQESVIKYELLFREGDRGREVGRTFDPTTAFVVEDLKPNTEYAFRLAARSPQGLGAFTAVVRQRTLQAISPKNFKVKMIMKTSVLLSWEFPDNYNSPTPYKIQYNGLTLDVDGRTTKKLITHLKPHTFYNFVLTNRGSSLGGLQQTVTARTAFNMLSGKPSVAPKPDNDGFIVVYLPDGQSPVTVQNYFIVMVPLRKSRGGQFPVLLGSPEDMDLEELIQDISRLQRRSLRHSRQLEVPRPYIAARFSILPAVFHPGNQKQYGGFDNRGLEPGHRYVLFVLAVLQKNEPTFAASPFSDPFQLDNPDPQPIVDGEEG
Description: Analysis of binding between RPTPσ sEcto-Fc and Glypican-2 or Neurocan alkaline phosphate (AP) fusion proteins was performed as described previously (S2, S26). All fusion proteins were produced in transiently transfected 293T cells. Briefly, the RPTPσ Fc-fusion protein was immobilised on 96-well Reactibind Protein A-coated plates (Pierce) and incubated with soluble proteoglycan-AP proteins which had been normalized for equal input AP activity. AP activity was determined by measuring substrate turnover on a microplate reader as described (S27, S28). […] In FIG. 23, the binding between RPTPσ-Fc and heparin-derived size-fractionated oligosaccharides with different lengths (HS6, HS8, HS10, HS17, HS23, HS30 and HS67, corresponding to hexasaccharide, octasaccharide, decasaccharide, or approximately 17, 23, 30 and 67 saccharide units; molecular weights 1,800 Da, 3,000 Da, 5,000 Da, 7,000 Da, 9,000 Da, and 20,000 Da; Neoparin) was analyzed with RPTPσ-Fc immobilised on 96-well Reactibind Protein A-coated plates (Pierce) and incubated with soluble biotinalated HS. The bound HS was quantified by AP enzyme activity following incubation with streptavidin-AP (Promega). […]

[5] = target: Mouse RPTPσ sEcto-Fc (mouse) (UniProt B0V2N1); assay: solid phase binding assay, immobilised mouse RPTPσ sEcto-Fc, bound AP activity; Kd from the binding curve, one-to-one binding assumed; Scatchard inset; remark: listed apart in the source

Molecule: Neurocan-alkaline phosphatase
- Kd [1]: 21.2 nM

Molecule: recombinant mouse Neurocan (5800-NC, R&D Systems) (from UniProt P55066 23-637)
- decrease in outgrowth of wild-type DRG neurons (neurite outgrowth assay) [2]: 60%

B1: glypican-2: a representative HSPG; Glypican2-AP fusion in binding assays, recombinant mouse Glypican-2 (2355-GP, R&D Systems) in outgrowth assays (protein)
chain: HGSEAKVVRSCAETRQVLGARGYSLNLIPPSLISGEHLQVCPQEYTCCSSETEQKLIRDAEVTFRGLVEDSGSFLIHTLAARHRKFNEFFREMLSISQHSLAQLFSHSYGRLYSQHAVIFNSLFSGLRDYYEKSGEGLDDTLADFWAQLLERAFPLLHPQYSFPPDFLLCLTRLTSTADGSLQPFGDSPRRLRLQISRALVAARALVQGLETGRNVVSEALKVPVLEGCRQALMRLIGCPLCRGVPSLMPCRGFCLNVAHGCLSSRGLEPEWGGYLDGLLLLAEKLQGPFSFELAAESIGVKISEGLMHLQENSVKVSAKVFQECGTPHPVQSRSRRAPAPREEASRSWRASAEEERPTTAAGTNLHRLVWELRERLSRVRGFWAGLPVTVCGDSRMAADLSQETAPCWTGVGRGRYMSPVVVGSLNEQLHNPELDTSSPDVPTRRRRLHLRAATARMKAAALGQDLDMHDADEDASGSGGGQQYADDWKAGAVPVVPPARPPRPPRPPRRDGLGVRGGSGSARYNQGRSRNLGS
- effect on neurite outgrowth of RPTPσ−/− neurons compared with wild-type [3]: reduced to undetectable levels
- neurite outgrowth relative to control at lower concentration ([4]; glypican-2 5 μg/ml, wild-type P10 DRG neurons (FIG. 19)): promoted outgrowth to a lesser extent
- growth-promoting effect after heparitinase III treatment ([4]; glypican-2 30 μg/ml pre-incubated with 1 unit/ml HPNIII): significantly reduced its growth-promoting ability; also recorded: did not completely eliminate the growth promoting effect
- effect on neurite outgrowth of wild-type neurons ([4]; 48 hours): strongly promoted outgrowth; also recorded: promotion of outgrowth
- binding to RPTPσ after enzymatic removal of GAG chains (mouse RPTPσ sEcto-Fc): dramatically reduced binding

B2: Glypican-2-AP (protein, mouse, UniProt Q8BKV1 22-555, looked up, not shown: large carriers)
chain: HGSEAKVVRSCAETRQVLGARGYSLNLIPPSLISGEHLQVCPQEYTCCSSETEQKLIRDAEVTFRGLVEDSGSFLIHTLAARHRKFNEFFREMLSISQHSLAQLFSHSYGRLYSQHAVIFNSLFSGLRDYYEKSGEGLDDTLADFWAQLLERAFPLLHPQYSFPPDFLLCLTRLTSTADGSLQPFGDSPRRLRLQISRALVAARALVQGLETGRNVVSEALKVPVLEGCRQALMRLIGCPLCRGVPSLMPCRGFCLNVAHGCLSSRGLEPEWGGYLDGLLLLAEKLQGPFSFELAAESIGVKISEGLMHLQENSVKVSAKVFQECGTPHPVQSRSRRAPAPREEASRSWRASAEEERPTTAAGTNLHRLVWELRERLSRVRGFWAGLPVTVCGDSRMAADLSQETAPCWTGVGRGRYMSPVVVGSLNEQLHNPELDTSSPDVPTRRRRLHLRAATARMKAAALGQDLDMHDADEDASGSGGGQQYADDWKAGAVPVVPPARPPRPPRPPRRDGLGVRGGSGSARYNQGRSRNLG
modifications: carries heparan sulfate GAG chains (removed by heparitinase III)
- Kd [5]: 10.5 nM

B3: neurocan: a representative CSPG; Neurocan-AP fusion in binding assays, recombinant mouse Neurocan (5800-NC, R&D Systems) in outgrowth assays (protein)
chain: DQDTQDTTATEKGLRMLKSGSGPVRAALAELVALPCFFTLQPRLSSLRDIPRIKWTKVQTASGQRQDLPILVAKDNVVRVAKGWQGRVSLPAYPRHRANATLLLGPLRASDSGLYRCQVVKGIEDEQDLVTLEVTGVVFHYRAARDRYALTFAEAQEACRLSSATIAAPRHLQAAFEDGFDNCDAGWLSDRTVRYPITQSRPGCYGDRSSLPGVRSYGRRDPQELYDVYCFARELGGEVFYVGPARRLTLAGARAQCQRQGAALASVGQLHLAWHEGLDQCDPGWLADGSVRYPIQTPRRRCGGPAPGVRTVYRFANRTGFPAPGARFDAYCFRAHHHTAQHGDSEIPSSGDEGEIVSAEGPPGRELKPSLGEQEVIAPDFQEPLMSSGEGEPPDLTWTQAPEETLGSTPGGPTLASWPSSEKWLFTGAPSSMGVSSPSDMGVDMEATTPLGTQVAPTPTMRRGRFKGLNGRHFQQQGPEDQLPEVAEPSAQPPTLGATANHMRPSAATEASESDQSHSPWAILTNEVDEPGAGSLGSRSLPESLMWSPSLISPSVPSTESTPSPKPGAAEAPSVKSAIPHLPRLPSEPPAPSPGPSEALSAVSLQASSADGSPD
- effect on neurite outgrowth of RPTPσ−/− neurons compared with wild-type [3]: inhibitory effect was decreased
- effect on neurite outgrowth of wild-type neurons ([4]; 48 hours): inhibition
- reduction of neurite outgrowth ([4]; wild-type DRG neurons, neurocan 5 μg/ml, 48 hours): approximately 60%
- binding to RPTPσ after enzymatic removal of GAG chains (mouse RPTPσ sEcto-Fc): dramatically reduced binding
